The values below come from PMC11861601 (2025).

Read-outs that look alike come from different tables or passages of the source.

Experiment [1] concerns the target T1, His-tagged MAX (human, UniProt P61244 1-160). Description: SPR; repeat. Background: Surface plasmon resonance follows binding to a sensor surface in real time, without labels.
The target in experiment [2] is T1, His-tagged MAX. Description: SPR.
Experiment [3] has as its target T2, His-tagged full-length c-MYC (human, UniProt P01106-1 1-439). Description: SPR.
The target in experiment [4] is T3, His-tagged full-length N-MYC (human, UniProt P04198 1-464).
T3 chain: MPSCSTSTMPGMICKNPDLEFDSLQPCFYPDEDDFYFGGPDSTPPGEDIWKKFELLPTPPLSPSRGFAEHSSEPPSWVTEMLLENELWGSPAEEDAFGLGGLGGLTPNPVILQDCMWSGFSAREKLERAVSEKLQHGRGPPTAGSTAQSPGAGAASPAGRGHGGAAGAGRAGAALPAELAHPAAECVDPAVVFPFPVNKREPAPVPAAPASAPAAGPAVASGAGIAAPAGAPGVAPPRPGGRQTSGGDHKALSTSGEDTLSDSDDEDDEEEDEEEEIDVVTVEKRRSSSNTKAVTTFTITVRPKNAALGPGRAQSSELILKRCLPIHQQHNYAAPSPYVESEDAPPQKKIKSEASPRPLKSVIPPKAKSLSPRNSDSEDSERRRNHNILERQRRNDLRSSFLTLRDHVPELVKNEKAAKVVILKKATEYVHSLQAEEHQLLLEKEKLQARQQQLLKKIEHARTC
Description: SPR.

Experiment [5] has as its target His-tagged C-terminal c-MYC (human). Description: SPR.
For experiment [6], the target named is T2, His-tagged full-length c-MYC. Description: SPR. The source holds these as a separate data set.

T2 sequence (P01106 16-454): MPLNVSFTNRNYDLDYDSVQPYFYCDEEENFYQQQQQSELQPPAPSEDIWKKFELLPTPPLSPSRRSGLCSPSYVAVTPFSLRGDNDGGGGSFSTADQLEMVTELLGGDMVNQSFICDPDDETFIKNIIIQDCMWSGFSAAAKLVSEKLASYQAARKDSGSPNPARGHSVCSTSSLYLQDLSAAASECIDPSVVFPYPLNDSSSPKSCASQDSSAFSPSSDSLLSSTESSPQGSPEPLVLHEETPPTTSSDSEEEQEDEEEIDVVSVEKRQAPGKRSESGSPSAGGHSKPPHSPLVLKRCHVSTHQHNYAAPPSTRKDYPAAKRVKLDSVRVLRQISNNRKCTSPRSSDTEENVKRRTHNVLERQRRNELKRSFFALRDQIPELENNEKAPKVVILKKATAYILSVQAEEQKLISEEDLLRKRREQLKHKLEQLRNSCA
T1 sequence (P61244 whole entry): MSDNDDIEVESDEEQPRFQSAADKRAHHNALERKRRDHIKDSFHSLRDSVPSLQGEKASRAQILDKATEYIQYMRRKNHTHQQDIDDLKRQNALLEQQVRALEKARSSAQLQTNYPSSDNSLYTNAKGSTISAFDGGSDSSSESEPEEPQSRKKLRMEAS
Sequence of His-tagged C-terminal c-MYC (human) (chain, as listed by the source): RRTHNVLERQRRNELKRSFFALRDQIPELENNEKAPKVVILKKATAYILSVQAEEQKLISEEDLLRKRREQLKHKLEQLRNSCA

B1: Lon N-terminal domain peptide (aa 1-245) (domain or fragment)
chain: MNPERSERIEIPVLPLRDVVVYPHMVIPLFVGREKSIRCLEAAMDHDKKIMLVAQKEASTDEPGVNDLFTVGTVASILQMLKLPDGTVKVLVEGLQRARISALSDNGEHFSAKAEYLESPTIDEREQEVLVRTAISQFEGYIKLNKKIPPEVLTSLNSIDDPARLADTIAAHMPLKLADKQSVLEMSDVNERLEYLMAMMESEIDLLQVEKRIRNRVKKQMEKSQREYYLNEQMKAIQKELGEMD
A word on the Kd: it is the free concentration of one partner at which half of the binding sites on the other are occupied at equilibrium, for simple one-to-one binding. As to B1, the dissociation constant (Kd) was 1690 nM in experiment [1], 294 nM in experiment [2], 462 nM in experiment [3] and 402 nM in experiment [4].

B2: Lon N-terminal domain peptide (aa 1-245) (domain or fragment)
chain: B1 chain
modifications: His-tag omitted. The paper does not print the limits of Origene TP762404. Limits follow the paper's modelled C-terminal part, c-MYC aa 356-439 in 439-aa numbering, shifted by +15 to the 454-aa entry (bHLH-leucine zipper to the C-terminus). The bought construct may start earlier.
In experiment [5], B2 returned a Kd of 495 nM.

B3: Lon peptidase domain peptide (aa 581-778) (domain or fragment)
chain: VQRFDYGRADNENRVGQVTGLAWTEVGGDLLTIETACVPGKGKLTYTGSLGEVMQESIQAALTVVRARAEKLGINPDFYEKRDIHVHVPEGATPKDGPSAGIAMCTALVSCLTGNPVRADVAMTGEITLRGQVLPIGGLKEKLLAAHRGGIKTVLIPFENKRDLEEIPDNVIADLDIHPVKRIEEVLTLALQNEPSGM
The molecule B3 displayed a dissociation constant (Kd) in experiment [6] of 849 nM.

B4: Lon AAA+ domain peptide (aa 241-584) (domain or fragment)
chain: LGEMDDAPDENEALKRKIDAAKMPKEAKEKAEAELQKLKMMSPMSAEATVVRGYIDWMVQVPWNARSKVKKDLRQAQEILDTDHYGLERVKDRILEYLAVQSRVNKIKGPILCLVGPPGVGKTSLGQSIAKATGRKYVRMALGGVRDEAEIRGHRRTYIGSMPGKLIQKMAKVGVKNPLFLLDEIDKMSSDMRGDPASALLEVLDPEQNVAFSDHYLEVDYDLSDVMFVATSNSMNIPAPLLDRMEVIRLSGYTEDEKLNIAKRHLLPKQIERNALKKGELTVDDSAIIGIIRYYTREAGVRGLEREISKLCRKAVKQLLLDKSLKHIEINGDNLHDYLGVQRF
Regarding B4, the affinity in experiment [6], expressed as Kd, was 534 nM.

B5: recombinant Escherichia coli Lon protease (aa 1-778) (enzyme)
chain: MNPERSERIEIPVLPLRDVVVYPHMVIPLFVGREKSIRCLEAAMDHDKKIMLVAQKEASTDEPGVNDLFTVGTVASILQMLKLPDGTVKVLVEGLQRARISALSDNGEHFSAKAEYLESPTIDEREQEVLVRTAISQFEGYIKLNKKIPPEVLTSLNSIDDPARLADTIAAHMPLKLADKQSVLEMSDVNERLEYLMAMMESEIDLLQVEKRIRNRVKKQMEKSQREYYLNEQMKAIQKELGEMDDAPDENEALKRKIDAAKMPKEAKEKAEAELQKLKMMSPMSAEATVVRGYIDWMVQVPWNARSKVKKDLRQAQEILDTDHYGLERVKDRILEYLAVQSRVNKIKGPILCLVGPPGVGKTSLGQSIAKATGRKYVRMALGGVRDEAEIRGHRRTYIGSMPGKLIQKMAKVGVKNPLFLLDEIDKMSSDMRGDPASALLEVLDPEQNVAFSDHYLEVDYDLSDVMFVATSNSMNIPAPLLDRMEVIRLSGYTEDEKLNIAKRHLLPKQIERNALKKGELTVDDSAIIGIIRYYTREAGVRGLEREISKLCRKAVKQLLLDKSLKHIEINGDNLHDYLGVQRFDYGRADNENRVGQVTGLAWTEVGGDLLTIETACVPGKGKLTYTGSLGEVMQESIQAALTVVRARAEKLGINPDFYEKRDIHVHVPEGATPKDGPSAGIAMCTALVSCLTGNPVRADVAMTGEITLRGQVLPIGGLKEKLLAAHRGGIKTVLIPFENKRDLEEIPDNVIADLDIHPVKRIEEVLTLALQNEPSGM
modifications: His-tag omitted. The paper does not print the limits of Origene TP762404. Limits follow the paper's modelled C-terminal part, c-MYC aa 356-439 in 439-aa numbering, shifted by +15 to the 454-aa entry (bHLH-leucine zipper to the C-terminus). The bought construct may start earlier.
For the molecule B5, in experiment [5], the dissociation constant Kd amounted to 398 nM.

B6: recombinant Escherichia coli Lon protease (aa 1-778) (enzyme)
chain: B5 chain
On to B6, for which the dissociation constant Kd in experiment [1] amounted to 174 nM; in experiment [2], 164 nM; in experiment [3], 382 nM; in experiment [4], 332 nM.
